Measured values reported in paper PMC1931443, “Vertebrate DM domain proteins bind similar DNA sequences and can heterodimerize on DNA” (BMC Molecular Biology, 2007).

B1: DMRT1 (mouse), full-length, amino-terminal Myc epitope tag, in vitro translated (natural protein)
chain: not shown
notes: DMRT1, mouse, full-length protein made by in vitro transcription/translation; also called in vitro translated DMRT1; source: in vitro translated (TNT Quick Coupled transcription/translation system, Promega, with 20 uM ZnSO4), not purified
B2: DMRT3 (mouse), Myc epitope tagged, in vitro translated (natural protein, UniProt Q80WT2 1-476, looked up)
chain: MNGYGSPYLYMGGPVSQPPRAPLQRTPKCARCRNHGVLSWLKGHKRYCRFKDCTCEKCILIIERQRVMAAQVALRRQQANESLESLIPDSLRALPGPPPPGDAAATAATASQSSPASQASQPPAPPRPTAELAAAAALRWVAEPQPGTLPAQLAKPDLTEERVGDSSSTDNTAEAFSDKDTDQRSSPDVVKSKNCFTPESPEIVSVDEGGYAVQKNGGNPESCPDSPKYHAEQSHLLIEGPSGTVSLPFSLKANRPPLEVLKKIFPNQKPTVLELILKGCGGDLVSAVEVLLSSRSSAAGAERTAEESLVLPSSGHIFEHTLGSYPISSSKWSVGSAFRVPDTLRFSADSSNVVPNPLAVPLQHPFPQPPRYPLMLRNTLARNQSSPFLPNDVTLWNTMTLQQQYQLRSQYVSPFPSNSTSVFRSSPVLSSRTTEDPRISIPDDGCPIVTKQSIYTEDDYDERSDSSDSRILNTSS
notes: DMRT3, mouse; also called tagged DMRT3; source: in vitro translated (TNT Quick Coupled transcription/translation system, Promega, with 20 uM ZnSO4), not purified
B3: DMRT5 (mouse), Myc epitope tagged, in vitro translated (natural protein, UniProt A2A9A2 1-531, looked up)
chain: MELRSELPSVPGAATAAATATGPPVASVASVAAAAAAAASLPVSVAGGLLRAPPLLLRAAEKYPRTPKCARCRNHGVVSALKGHKRYCRWKDCLCAKCTLIAERQRVMAAQVALRRQQAQEENEARELQLLYGTAEGLALAAANGIIPPRPAYEVFGSVCATDGGGPGAGAPAGSAGGAGGAEAKLQKFDLFPKTLLQAGRPDSPQPPPGKPLSPDGADSGPRTSSPEVRPGSGSENGDGESFSGSPLARASKEAGGSCPGSAGAGGGGEEDSPGSSSPLGSESGSEADKEEAEAAPTPGLGGGPGPRQRTPLDILTRVFPGHRRGVLELVLQGCGGDVVQAIEQVLNHHRGGLAAGLGPAAPLEKAAVSAAVEDAWPGRVEAAAAGGAGLPAPLQTGPTAPPHHRPLLAGAMTPGALGSLSSRSAFSPLQPNASHFGADAGAYPLGAPLGLSPLRLAYSAAAAHSRGLAFMAPYSTAGLVPTLGFRPPMDYAFSDLMRDRSAAAAAAVHKEPGYGGGLYGPMVNGTPEKQ
notes: DMRT5, mouse; source: in vitro translated (TNT Quick Coupled transcription/translation system, Promega, with 20 uM ZnSO4), not purified
B4: DMRT1 of the heterodimerization gel shifts (complex not affected by the 9E10 anti-Myc antibody) (natural protein)
chain: not shown
notes: DMRT1, mouse; the construct used in this experiment is not described; The methods describe only a Myc-tagged DMRT1 construct; source: in vitro translated, not purified

Legend:
[1] = target: the molecule itself; test: native gel or EMSA; one in vitro translated DMRT protein (4 ul translation mix) with 32P-labelled dsDNA probe bearing the DMRT1 consensus site; monomer and dimer complexes seen on DNA; 10 mM Tris-HCl pH 7.9, 100 mM KCl, 10% glycerol, 5 mM MgCl2, 1 mM spermidine, 0.075% Triton-X-100, 1 mM DTT; on ice 10 min; 5% native gel at 4 C
[2] = target: the molecule itself; test: native gel or EMSA; DMRT1 alone or together with a Myc-tagged DMRT protein (in vitro translated) on labelled DMRT1 consensus probe; composition of the DNA/protein complexes tested by supershift with DMRT1 antibody or anti-Myc 9E10; dimers seen on DNA

Protein	stoichiometry N [1]	stoichiometry N [2]
B1	2	
B2	2	
B3	2	
B4		2
